Square brackets hold non-standard residues; d marks the D form. Ends that are not written are not given here. * marks the point of attachment. OBzl(3,5-(CF3)2) = FC(F)(F)c1cc(CO*)cc(C(F)(F)F)c1; OBn(CF3)2 = C-terminal Bn(CF3)2 ester; Dmt = Cc1cc(O)cc(C)c1C[C@H](N)C(=O)O; Aib = CC(C)(N)C(=O)O; NHBn = c1ccc(CN*)cc1; OBn = c1ccc(CO*)cc1
These binders were tested against T1, human δ opioid receptor (human, UniProt P41143 1-372) (assay: cell-based or functional assay).
T1 sequence (P41143 whole entry, stated change not applied): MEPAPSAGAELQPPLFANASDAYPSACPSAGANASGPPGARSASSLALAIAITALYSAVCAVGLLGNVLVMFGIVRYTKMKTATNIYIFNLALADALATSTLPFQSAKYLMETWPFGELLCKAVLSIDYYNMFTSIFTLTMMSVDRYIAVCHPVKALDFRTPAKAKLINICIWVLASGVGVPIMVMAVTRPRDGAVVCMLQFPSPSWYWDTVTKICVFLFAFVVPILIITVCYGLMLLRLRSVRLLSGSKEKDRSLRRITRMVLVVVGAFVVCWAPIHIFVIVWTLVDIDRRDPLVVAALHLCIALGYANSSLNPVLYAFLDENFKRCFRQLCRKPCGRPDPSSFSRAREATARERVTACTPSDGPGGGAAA

Binder | GTP binding hDOR Emax [%] | GTP binding hDOR EC50 [nM]
Y[dA]GFMALW-{OBzl(3,5-(CF3)2)} [TyrDAlaGlyPheMetAlaLeuTrpOBn(CF3)2 (TY020)] | 26.4 | 
[Dmt][dA]GFMPLW-{OBzl(3,5-(CF3)2)} [DmtDAlaGlyPheMetProLeuTrpOBn(CF3)2 (TY033)] | 200 | 0.73
Y[dA]GFM[Aib]LW-{OBn(CF3)2} [TyrDAlaGlyPheMetAibLeuTrpOBn(CF3)2 (TY022)] | 28 | 
Y[dA]GFMPLW-OH [TyrDAlaGlyPheMetProLeuTrpOH (TY043)] | 62 | 0.51
YAGFXPLW (D-Ala at 2; Nle at 5 (X); C-terminal NH-Bn(CF3)2 amide) [TyrDAlaGlyPheNleProLeuTrpNHBn(CF3)2 (TY045)] | 125 | 5
Y[dA]GFMPLW-OBn [TyrDAlaGlyPheMetProLeuTrpOBn (TY029)] | 98 | 3.4
YAGFXPLW (D-Ala at 2; Nle (norleucine) at 5 (X); C-terminal O-3,5-Bn(CF3)2 ester) [TyrDAlaGlyPheNleProLeuTrpOBn(CF3)2 (TY018)] | 131 | 4
Y[dA]GFMPLW-NHBn [TyrDAlaGlyPheMetProLeuTrpNHBn (TY025)] | 51.7 | 2.6

Each binder was assayed against rat µ opioid receptor (rat, UniProt P33535 1-398) (assay: cell-based or functional assay).
rat µ opioid receptor, sequence (P33535 whole entry): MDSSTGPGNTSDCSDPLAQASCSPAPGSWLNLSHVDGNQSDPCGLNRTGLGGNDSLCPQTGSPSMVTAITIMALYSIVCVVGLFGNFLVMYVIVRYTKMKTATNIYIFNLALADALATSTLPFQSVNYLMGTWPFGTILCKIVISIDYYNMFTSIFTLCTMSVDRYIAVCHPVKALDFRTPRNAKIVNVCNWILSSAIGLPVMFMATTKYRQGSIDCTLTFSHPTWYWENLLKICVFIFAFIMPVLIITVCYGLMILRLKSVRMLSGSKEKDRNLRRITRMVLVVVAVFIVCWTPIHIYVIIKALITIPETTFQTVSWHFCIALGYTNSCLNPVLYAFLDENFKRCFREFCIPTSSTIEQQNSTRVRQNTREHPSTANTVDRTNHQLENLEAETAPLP

Binder | GTP binding rMOR Emax [%] | GTP binding rMOR EC50 [nM]
Y[dA]GFMALW-{OBzl(3,5-(CF3)2)} [TyrDAlaGlyPheMetAlaLeuTrpOBn(CF3)2 (TY020)] | 51.4 | 
Y[dA]GFM[Aib]LW-{OBn(CF3)2} [TyrDAlaGlyPheMetAibLeuTrpOBn(CF3)2 (TY022)] | 32 | 100
Y[dA]GFMPLW-OBn [TyrDAlaGlyPheMetProLeuTrpOBn (TY029)] | 133 | 
Y[dA]GFMPLW-NHBn [TyrDAlaGlyPheMetProLeuTrpNHBn (TY025)] | 46.8 | 

These binders were tested against µ opioid receptor of the guinea pig isolated ileum (guinea pig, UniProt P97266 1-98) (assay: cell-based or functional assay).
µ opioid receptor of the guinea pig isolated ileum, sequence (P97266 whole entry): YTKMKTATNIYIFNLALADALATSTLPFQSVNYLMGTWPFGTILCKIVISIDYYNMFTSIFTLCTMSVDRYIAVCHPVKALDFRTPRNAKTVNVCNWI

Binder | GPI/LMMP opioid(mu) agonist IC50 [nM]
[Dmt][dA]GFMPLW-{OBzl(3,5-(CF3)2)} [DmtDAlaGlyPheMetProLeuTrpOBn(CF3)2 (TY033)] | 100
Y[dA]GFMPLW-OH [TyrDAlaGlyPheMetProLeuTrpOH (TY043)] | 272
YAGFXPLW (D-Ala at 2; Nle at 5 (X); C-terminal NH-Bn(CF3)2 amide) [TyrDAlaGlyPheNleProLeuTrpNHBn(CF3)2 (TY045)] | 463
Y[dA]GFMPLW-OBn [TyrDAlaGlyPheMetProLeuTrpOBn (TY029)] | 22.2
YAGFXPLW (D-Ala at 2; Nle (norleucine) at 5 (X); C-terminal O-3,5-Bn(CF3)2 ester) [TyrDAlaGlyPheNleProLeuTrpOBn(CF3)2 (TY018)] | 372
Y[dA]GFMPLW-NHBn [TyrDAlaGlyPheMetProLeuTrpNHBn (TY025)] | 61.1

What follows are binders tested against guinea pig NK1 receptor (guinea pig, UniProt P30547 1-407) (assay: cell-based or functional assay).
guinea pig NK1 receptor, sequence (P30547 whole entry): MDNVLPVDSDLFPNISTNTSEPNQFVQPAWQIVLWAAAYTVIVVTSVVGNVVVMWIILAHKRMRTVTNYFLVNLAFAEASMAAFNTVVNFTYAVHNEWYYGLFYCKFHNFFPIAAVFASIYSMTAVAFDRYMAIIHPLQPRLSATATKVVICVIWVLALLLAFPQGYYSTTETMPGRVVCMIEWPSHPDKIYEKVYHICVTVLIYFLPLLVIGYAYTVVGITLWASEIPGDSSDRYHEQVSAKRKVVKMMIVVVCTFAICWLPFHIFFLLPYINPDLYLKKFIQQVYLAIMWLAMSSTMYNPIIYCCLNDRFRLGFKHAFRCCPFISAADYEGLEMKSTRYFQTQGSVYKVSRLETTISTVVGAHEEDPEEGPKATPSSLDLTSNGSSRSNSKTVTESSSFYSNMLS

Binder | GPI/LMMP SP antagonist Ke [nM]
[Dmt][dA]GFMPLW-{OBzl(3,5-(CF3)2)} [DmtDAlaGlyPheMetProLeuTrpOBn(CF3)2 (TY033)] | 24.5
YAGFXPLW (D-Ala at 2; Nle at 5 (X); C-terminal NH-Bn(CF3)2 amide) [TyrDAlaGlyPheNleProLeuTrpNHBn(CF3)2 (TY045)] | 40.8
Y[dA]GFMPLW-OBn [TyrDAlaGlyPheMetProLeuTrpOBn (TY029)] | 5.1
YAGFXPLW (D-Ala at 2; Nle (norleucine) at 5 (X); C-terminal O-3,5-Bn(CF3)2 ester) [TyrDAlaGlyPheNleProLeuTrpOBn(CF3)2 (TY018)] | 7.93
Y[dA]GFMPLW-NHBn [TyrDAlaGlyPheMetProLeuTrpNHBn (TY025)] | 9.9

What follows are binders tested against T1, human δ opioid receptor (assay: radioligand competition vs [3H]DPDPE, membranes of hDOR cells).

Binder | Ki [nM]
[Dmt][dA]GFMPLW-{OBzl(3,5-(CF3)2)} [DmtDAlaGlyPheMetProLeuTrpOBn(CF3)2 (TY033)] | 0.22
Y[dA]GFMPLW-OH [TyrDAlaGlyPheMetProLeuTrpOH (TY043)] | 1.1
YAGFXPLW (D-Ala at 2; Nle at 5 (X); C-terminal NH-Bn(CF3)2 amide) [TyrDAlaGlyPheNleProLeuTrpNHBn(CF3)2 (TY045)] | 1
YAGFXPLW (D-Ala at 2; Nle (norleucine) at 5 (X); C-terminal O-3,5-Bn(CF3)2 ester) [TyrDAlaGlyPheNleProLeuTrpOBn(CF3)2 (TY018)] | 1.8
Y[dA]GFMPLW-NHBn [TyrDAlaGlyPheMetProLeuTrpNHBn (TY025)] | 0.44

The binders below were run against T2, human NK1 receptor (human, UniProt P25103 1-407) (assay: radioligand competition vs [3H]substance P, membranes of hNK1 CHO cells).
T2 construct: whole, on cells; Used as membrane preparations of transfected CHO cells; also called hNK1; human neurokinin-1 receptor
T2 sequence (P25103 whole entry): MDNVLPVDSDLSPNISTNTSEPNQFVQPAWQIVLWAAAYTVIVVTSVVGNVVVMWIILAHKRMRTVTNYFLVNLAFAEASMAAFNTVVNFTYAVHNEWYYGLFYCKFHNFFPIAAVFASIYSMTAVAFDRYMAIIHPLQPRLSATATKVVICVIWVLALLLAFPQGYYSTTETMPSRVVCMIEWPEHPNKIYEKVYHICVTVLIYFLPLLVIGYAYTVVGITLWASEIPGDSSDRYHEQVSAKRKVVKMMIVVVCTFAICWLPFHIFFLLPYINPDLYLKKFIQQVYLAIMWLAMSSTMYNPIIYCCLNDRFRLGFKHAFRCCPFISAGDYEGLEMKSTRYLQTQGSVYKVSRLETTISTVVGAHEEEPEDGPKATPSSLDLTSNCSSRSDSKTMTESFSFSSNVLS

Binder | Ki [nM]
[Dmt][dA]GFMPLW-{OBzl(3,5-(CF3)2)} [DmtDAlaGlyPheMetProLeuTrpOBn(CF3)2 (TY033)] | 1.2
YAGFXPLW (D-Ala at 2; Nle at 5 (X); C-terminal NH-Bn(CF3)2 amide) [TyrDAlaGlyPheNleProLeuTrpNHBn(CF3)2 (TY045)] | 0.0028
YAGFXPLW (D-Ala at 2; Nle (norleucine) at 5 (X); C-terminal O-3,5-Bn(CF3)2 ester) [TyrDAlaGlyPheNleProLeuTrpOBn(CF3)2 (TY018)] | 0.14

What follows are binders tested against T3, rat NK1 receptor (rat, UniProt P14600 1-407) (assay: radioligand competition vs [3H]substance P, membranes of rNK1 CHO cells).
T3 construct: whole, on cells; Used as membrane preparations of transfected CHO cells; also called rNK1; rat neurokinin-1 receptor
T3 sequence (P14600 whole entry): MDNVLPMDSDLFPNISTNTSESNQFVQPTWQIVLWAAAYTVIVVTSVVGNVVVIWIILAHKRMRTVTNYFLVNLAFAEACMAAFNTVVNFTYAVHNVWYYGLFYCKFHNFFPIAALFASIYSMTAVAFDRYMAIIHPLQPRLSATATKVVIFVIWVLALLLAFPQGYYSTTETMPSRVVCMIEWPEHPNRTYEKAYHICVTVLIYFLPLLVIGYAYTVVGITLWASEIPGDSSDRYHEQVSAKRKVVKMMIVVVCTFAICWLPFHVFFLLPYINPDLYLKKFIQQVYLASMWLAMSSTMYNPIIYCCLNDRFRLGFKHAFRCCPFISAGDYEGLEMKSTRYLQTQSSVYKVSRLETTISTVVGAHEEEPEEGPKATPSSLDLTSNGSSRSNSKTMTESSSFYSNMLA

Binder | Ki [nM]
[Dmt][dA]GFMPLW-{OBzl(3,5-(CF3)2)} [DmtDAlaGlyPheMetProLeuTrpOBn(CF3)2 (TY033)] | 0.96
Y[dA]GFMPLW-OH [TyrDAlaGlyPheMetProLeuTrpOH (TY043)] | 9850
Y[dA]GFMPLW-OBn [TyrDAlaGlyPheMetProLeuTrpOBn (TY029)] | 20.3

Reference: patent US8026218 (UNIVERSITY OF ARIZONA, dated 2011)
